Measured values from patent US20070093443.
Positions count from the first letter of the chain named. In names and notes the source's numbering stands.

Legend:
[1] = biological target: T1, Ac-RQAR-AMC
T1 chain: RQAR

[2] = biological target: Complement component C8 (human)
[3] = biological target: Complement C1q (human)
[4] = biological target: Complement C5 (human)
[5] = biological target: T2, Complement C2 (human)
T2 chain: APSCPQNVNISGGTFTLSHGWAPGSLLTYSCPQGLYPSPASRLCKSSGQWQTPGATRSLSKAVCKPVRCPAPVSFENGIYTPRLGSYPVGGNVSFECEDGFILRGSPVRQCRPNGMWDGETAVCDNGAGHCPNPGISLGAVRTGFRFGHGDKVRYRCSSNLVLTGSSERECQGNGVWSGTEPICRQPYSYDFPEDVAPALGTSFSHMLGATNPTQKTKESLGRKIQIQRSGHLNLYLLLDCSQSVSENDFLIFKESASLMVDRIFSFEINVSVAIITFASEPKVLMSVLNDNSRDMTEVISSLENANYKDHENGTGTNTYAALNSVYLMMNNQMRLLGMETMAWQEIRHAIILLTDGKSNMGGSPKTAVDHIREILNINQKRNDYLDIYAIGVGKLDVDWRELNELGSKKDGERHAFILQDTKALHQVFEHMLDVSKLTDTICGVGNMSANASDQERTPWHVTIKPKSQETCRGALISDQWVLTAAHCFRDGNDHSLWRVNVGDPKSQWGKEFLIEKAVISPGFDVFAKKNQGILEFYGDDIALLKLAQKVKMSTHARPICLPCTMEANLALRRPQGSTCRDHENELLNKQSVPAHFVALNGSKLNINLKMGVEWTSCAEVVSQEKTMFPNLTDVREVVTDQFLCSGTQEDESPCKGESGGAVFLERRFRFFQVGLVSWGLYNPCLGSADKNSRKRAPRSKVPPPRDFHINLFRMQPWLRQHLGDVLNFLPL

[6] = biological target: Complement component C6 (human)
[7] = biological target: T3, Complement C4 (human)
T3 chain 1: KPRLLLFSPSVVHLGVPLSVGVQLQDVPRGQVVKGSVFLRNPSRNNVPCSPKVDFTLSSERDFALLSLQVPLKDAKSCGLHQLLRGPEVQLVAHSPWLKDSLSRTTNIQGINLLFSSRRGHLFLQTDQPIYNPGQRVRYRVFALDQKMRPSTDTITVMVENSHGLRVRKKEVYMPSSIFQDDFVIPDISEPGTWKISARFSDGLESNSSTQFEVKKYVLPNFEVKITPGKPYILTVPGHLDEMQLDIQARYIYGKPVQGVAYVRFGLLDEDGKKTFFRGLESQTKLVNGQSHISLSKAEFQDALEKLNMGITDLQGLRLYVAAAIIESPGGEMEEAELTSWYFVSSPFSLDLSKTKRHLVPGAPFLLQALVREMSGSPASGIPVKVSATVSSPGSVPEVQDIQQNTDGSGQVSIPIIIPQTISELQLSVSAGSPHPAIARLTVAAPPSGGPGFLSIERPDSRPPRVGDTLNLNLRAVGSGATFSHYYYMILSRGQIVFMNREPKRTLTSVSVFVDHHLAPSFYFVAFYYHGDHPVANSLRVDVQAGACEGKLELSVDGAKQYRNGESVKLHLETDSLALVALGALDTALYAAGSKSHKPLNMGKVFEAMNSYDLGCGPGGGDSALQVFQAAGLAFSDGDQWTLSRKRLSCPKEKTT
T3 chain 2: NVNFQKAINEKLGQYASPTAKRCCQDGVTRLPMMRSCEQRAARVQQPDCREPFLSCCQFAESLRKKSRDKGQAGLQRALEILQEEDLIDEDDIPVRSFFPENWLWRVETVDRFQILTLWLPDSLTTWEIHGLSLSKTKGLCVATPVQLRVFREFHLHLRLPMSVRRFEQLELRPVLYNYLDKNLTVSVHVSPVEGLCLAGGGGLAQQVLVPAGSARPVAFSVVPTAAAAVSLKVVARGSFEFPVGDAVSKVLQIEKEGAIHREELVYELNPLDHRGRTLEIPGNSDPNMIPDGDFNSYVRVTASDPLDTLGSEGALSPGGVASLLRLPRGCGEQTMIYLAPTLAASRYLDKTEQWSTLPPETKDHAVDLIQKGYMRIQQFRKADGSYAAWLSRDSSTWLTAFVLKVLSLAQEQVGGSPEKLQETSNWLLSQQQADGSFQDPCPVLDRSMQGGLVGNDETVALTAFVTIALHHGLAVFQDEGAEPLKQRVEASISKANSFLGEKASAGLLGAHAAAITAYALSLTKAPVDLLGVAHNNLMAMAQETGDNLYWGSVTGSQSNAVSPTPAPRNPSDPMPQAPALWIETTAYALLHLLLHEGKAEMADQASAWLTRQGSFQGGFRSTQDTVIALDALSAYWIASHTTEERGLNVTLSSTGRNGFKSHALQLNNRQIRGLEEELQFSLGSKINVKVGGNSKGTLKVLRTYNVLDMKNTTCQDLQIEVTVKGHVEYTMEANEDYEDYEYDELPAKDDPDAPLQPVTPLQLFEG
T3 chain 3: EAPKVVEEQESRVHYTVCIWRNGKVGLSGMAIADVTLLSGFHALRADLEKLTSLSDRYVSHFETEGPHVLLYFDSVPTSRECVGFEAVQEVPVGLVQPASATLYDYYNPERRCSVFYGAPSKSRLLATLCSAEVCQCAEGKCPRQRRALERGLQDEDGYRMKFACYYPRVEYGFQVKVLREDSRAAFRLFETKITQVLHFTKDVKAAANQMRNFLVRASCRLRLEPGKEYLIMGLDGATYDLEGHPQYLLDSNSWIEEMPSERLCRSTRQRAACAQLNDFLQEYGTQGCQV

[8] = biological target: T4, Ac-GLAR-AMC
T4 chain: GLAR

[9] = biological target: Complement component C7 (human)
[10] = biological target: Complement component C9 (human)
[11] = biological target: Complement C3 (human)
[12] = biological target: T5, Ac-SLGR-AMC
T5 chain: SLGR

Sequence of Complement C5 (human) (chain, as listed by the source, chain 1 of 2): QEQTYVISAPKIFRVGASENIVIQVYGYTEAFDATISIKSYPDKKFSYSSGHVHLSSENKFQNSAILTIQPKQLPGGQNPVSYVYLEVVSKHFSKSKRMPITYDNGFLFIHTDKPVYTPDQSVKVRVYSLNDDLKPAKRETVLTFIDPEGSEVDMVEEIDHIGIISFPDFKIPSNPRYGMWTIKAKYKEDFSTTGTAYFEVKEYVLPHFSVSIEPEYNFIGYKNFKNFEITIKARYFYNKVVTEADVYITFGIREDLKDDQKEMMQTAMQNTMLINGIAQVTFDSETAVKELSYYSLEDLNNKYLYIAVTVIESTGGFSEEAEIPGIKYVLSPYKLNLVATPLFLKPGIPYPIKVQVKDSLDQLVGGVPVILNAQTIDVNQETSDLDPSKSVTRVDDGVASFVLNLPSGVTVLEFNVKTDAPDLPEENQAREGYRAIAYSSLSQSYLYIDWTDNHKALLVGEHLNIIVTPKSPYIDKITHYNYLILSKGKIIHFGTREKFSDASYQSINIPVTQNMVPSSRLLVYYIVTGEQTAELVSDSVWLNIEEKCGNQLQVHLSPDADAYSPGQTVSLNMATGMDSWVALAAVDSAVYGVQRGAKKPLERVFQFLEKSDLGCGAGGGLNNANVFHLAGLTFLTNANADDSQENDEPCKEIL
Sequence of Complement C5 (human) (chain, as listed by the source, chain 2 of 2): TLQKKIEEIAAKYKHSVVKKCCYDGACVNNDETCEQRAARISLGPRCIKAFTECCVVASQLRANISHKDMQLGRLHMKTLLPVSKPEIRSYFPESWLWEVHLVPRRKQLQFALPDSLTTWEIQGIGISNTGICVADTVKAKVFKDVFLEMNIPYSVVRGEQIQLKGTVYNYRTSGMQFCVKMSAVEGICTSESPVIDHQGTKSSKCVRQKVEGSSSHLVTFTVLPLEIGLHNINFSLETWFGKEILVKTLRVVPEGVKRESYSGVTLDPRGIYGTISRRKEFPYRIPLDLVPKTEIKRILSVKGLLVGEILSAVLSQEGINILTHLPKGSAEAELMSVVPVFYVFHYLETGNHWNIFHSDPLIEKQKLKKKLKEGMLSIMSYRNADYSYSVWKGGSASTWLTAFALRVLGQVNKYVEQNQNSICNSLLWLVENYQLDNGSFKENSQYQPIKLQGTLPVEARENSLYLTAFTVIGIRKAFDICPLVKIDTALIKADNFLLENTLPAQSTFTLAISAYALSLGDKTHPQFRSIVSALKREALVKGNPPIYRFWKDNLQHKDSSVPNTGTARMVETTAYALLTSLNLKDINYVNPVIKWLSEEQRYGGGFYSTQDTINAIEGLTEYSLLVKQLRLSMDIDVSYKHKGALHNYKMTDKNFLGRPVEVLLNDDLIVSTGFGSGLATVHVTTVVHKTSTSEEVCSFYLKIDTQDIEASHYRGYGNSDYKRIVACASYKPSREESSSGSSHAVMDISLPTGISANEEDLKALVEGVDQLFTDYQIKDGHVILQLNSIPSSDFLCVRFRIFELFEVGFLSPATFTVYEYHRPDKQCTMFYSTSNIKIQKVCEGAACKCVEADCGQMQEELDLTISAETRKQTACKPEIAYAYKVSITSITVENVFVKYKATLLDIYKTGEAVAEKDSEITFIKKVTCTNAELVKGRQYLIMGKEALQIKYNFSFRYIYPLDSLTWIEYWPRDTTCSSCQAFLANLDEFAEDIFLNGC
Sequence of Complement component C6 (human) (chain, as listed by the source): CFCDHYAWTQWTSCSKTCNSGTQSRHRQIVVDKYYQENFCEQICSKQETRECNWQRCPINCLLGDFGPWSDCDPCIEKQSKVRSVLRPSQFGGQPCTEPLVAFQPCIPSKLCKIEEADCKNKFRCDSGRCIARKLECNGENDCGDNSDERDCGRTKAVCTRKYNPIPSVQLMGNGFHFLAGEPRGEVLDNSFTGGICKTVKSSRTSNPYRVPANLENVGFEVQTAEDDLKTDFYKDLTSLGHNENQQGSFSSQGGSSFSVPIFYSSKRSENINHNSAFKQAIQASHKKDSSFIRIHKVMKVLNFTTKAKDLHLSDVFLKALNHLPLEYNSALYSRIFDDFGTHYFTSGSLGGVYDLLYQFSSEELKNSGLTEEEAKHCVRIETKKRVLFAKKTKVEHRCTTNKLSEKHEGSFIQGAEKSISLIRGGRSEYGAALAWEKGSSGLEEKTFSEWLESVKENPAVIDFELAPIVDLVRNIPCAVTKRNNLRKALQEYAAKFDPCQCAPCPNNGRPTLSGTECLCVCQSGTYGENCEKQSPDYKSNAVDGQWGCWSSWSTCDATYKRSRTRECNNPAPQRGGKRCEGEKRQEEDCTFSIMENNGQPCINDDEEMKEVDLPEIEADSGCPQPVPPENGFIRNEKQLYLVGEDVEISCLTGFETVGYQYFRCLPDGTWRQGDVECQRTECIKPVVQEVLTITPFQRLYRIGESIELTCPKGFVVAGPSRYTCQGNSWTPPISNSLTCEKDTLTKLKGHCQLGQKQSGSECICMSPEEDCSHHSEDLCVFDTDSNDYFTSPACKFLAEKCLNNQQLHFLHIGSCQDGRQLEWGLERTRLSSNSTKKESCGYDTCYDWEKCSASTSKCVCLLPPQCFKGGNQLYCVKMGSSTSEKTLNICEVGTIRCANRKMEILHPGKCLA
Sequence of Complement component C7 (human) (chain, as listed by the source): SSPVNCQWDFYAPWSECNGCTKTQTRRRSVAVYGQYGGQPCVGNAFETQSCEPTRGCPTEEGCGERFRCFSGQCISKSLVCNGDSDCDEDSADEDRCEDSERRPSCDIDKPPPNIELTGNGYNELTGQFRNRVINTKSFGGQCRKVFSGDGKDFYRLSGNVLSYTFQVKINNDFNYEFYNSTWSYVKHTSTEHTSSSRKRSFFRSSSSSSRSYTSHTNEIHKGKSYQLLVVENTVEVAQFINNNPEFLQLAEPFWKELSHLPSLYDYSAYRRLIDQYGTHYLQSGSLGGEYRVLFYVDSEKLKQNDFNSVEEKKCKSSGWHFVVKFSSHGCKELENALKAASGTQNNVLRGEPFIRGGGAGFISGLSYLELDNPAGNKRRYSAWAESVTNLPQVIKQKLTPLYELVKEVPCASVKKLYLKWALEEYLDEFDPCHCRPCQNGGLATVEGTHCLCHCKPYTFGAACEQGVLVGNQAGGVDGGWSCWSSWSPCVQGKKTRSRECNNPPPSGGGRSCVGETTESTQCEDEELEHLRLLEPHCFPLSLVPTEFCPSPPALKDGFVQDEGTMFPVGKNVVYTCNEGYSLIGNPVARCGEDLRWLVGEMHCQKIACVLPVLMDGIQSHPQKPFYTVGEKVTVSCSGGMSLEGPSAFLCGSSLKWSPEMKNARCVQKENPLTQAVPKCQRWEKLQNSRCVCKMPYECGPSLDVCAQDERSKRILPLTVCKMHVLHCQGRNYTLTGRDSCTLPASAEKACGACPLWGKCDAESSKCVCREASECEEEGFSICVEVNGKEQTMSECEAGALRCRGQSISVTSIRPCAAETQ
Sequence of Complement component C8 (human) (chain, as listed by the source, chain 1 of 3): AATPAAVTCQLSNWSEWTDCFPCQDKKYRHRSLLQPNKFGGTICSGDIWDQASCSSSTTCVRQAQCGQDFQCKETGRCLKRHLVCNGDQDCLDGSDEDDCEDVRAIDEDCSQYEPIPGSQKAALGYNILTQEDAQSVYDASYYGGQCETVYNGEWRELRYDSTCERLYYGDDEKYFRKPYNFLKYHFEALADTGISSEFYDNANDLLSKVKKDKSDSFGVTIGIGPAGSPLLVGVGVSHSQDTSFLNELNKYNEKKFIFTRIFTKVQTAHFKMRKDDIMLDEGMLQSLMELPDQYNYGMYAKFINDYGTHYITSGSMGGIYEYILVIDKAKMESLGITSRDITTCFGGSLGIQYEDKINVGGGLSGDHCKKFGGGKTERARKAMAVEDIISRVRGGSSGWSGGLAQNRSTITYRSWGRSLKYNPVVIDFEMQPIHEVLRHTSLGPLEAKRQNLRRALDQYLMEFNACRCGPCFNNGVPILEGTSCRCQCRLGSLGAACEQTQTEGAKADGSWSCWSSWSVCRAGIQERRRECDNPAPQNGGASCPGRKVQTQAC
Sequence of Complement component C8 (human) (chain, as listed by the source, chain 2 of 3): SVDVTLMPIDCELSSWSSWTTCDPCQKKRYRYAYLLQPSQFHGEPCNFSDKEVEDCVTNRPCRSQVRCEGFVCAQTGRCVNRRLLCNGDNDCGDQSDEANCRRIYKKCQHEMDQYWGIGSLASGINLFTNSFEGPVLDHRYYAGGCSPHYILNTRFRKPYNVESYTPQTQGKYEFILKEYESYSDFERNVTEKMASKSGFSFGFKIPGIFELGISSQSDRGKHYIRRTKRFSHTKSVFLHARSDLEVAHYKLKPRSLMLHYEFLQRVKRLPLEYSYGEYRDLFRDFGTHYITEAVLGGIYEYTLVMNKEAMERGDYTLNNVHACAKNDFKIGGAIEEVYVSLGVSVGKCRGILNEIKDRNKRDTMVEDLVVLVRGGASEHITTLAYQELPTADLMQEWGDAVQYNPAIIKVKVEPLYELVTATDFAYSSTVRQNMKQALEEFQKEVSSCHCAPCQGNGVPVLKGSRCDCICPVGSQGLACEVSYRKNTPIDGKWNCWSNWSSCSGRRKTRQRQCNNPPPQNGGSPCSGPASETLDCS
Sequence of Complement component C8 (human) (chain, as listed by the source, chain 3 of 3): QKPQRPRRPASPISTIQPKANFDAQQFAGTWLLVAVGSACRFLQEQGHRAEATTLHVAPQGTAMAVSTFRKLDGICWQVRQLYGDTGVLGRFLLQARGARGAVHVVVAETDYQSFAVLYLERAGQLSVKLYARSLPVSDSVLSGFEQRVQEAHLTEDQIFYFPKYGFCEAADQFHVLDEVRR

B1: wildtype MT-SP1 protease domain (CB200) (protein)
chain: VVGGTDADEGEWPWQVSLHALGQGHICGASLISPNWLVSAAHCYIDDRGFRYSDPTQWTAFLGLHDQSQRSAPGVQERRLKRIISHPFFNDFTFDYDIALLELEKPAEYSSMVRPICLPDASHVFPAGKAIWVTGWGHTQYGGTGALILQKGEIRVINQTTCENLLPQQITPRMMCVGFLSGGVDSCQGDSGGPLSSVEADGRIFQAGVVSWGDGCAQRNKPGVYTRLPLFRDWIKENTGV
kcat/Km (specificity constant), fluorogenic peptide cleavage [1]: 1.9e+06 M⁻¹ s⁻¹
hemolysis (OD415) by protease-preincubated purified complement protein added back to the corresponding depleted sera [2]: showed no decreased hemolysis as compared to normal sera or the no protease control
hemolysis (OD415) by protease-preincubated purified complement protein added back to the corresponding depleted sera [3]: showed no decreased hemolysis as compared to normal sera or the no protease control
Fraction of Hemolysis (protease-incubated purified complement protein added back to depleted sera) [4]: 0.888
hemolysis (OD415) by protease-preincubated purified complement protein added back to the corresponding depleted sera [4]: showed no decreased hemolysis as compared to normal sera or the no protease control
Fraction of Hemolysis (protease-incubated purified complement protein added back to depleted sera) [5]: 0
cleavage in 90% human plasma by Western blot [5]: cleaved C2 in human plasma in a dose-dependent manner
fraction C5b-9 generated, Total Complement System Screen (classical and MBL pathways), 1 uM protease in human plasma [5]: the fraction C5b-9 generated upon complement activation induced by the classical and MBL pathways was almost completely inhibited
hemolysis (OD415) by protease-preincubated purified complement protein added back to the corresponding depleted sera [5]: resulted in an inhibition of hemolysis as assessed by a reduced OD415 absorbance to levels comparable to the depleted sera control
kcat/Km (specificity constant) of cleavage of full length C2, in gel kinetics (SDS-PAGE densitometry time course) [5]: 19500 M⁻¹ s⁻¹
hemolysis (OD415) by protease-preincubated purified complement protein added back to the corresponding depleted sera [6]: showed no decreased hemolysis as compared to normal sera or the no protease control
Fraction of Hemolysis (protease-incubated purified complement protein added back to depleted sera) [7]: 0.97
hemolysis (OD415) by protease-preincubated purified complement protein added back to the corresponding depleted sera [7]: showed no decreased hemolysis as compared to normal sera or the no protease control
kcat/Km (specificity constant), fluorogenic peptide cleavage [8]: 64000 M⁻¹ s⁻¹
hemolysis (OD415) by protease-preincubated purified complement protein added back to the corresponding depleted sera [9]: showed no decreased hemolysis as compared to normal sera or the no protease control
hemolysis (OD415) by protease-preincubated purified complement protein added back to the corresponding depleted sera [10]: showed no decreased hemolysis as compared to normal sera or the no protease control
Fraction of Hemolysis (protease-incubated purified complement protein added back to depleted sera) [11]: 0.00834
cleavage in 90% human plasma by Western blot [11]: none of the tested proteases cleaved C3 in human plasma as compared to the no protease control even at the highest concentration of protease (2000 nM)
hemolysis (OD415) by protease-preincubated purified complement protein added back to the corresponding depleted sera [11]: showed no decreased hemolysis as compared to normal sera or the no protease control
kcat/Km (specificity constant), fluorogenic peptide cleavage [12]: 20000 M⁻¹ s⁻¹

B2: modified MT-SP1 CB155 (Y146D/K224F) protease domain (protein)
chain: B1 chain with Y141D, K221F
kcat/Km (specificity constant), fluorogenic peptide cleavage [1]: 91000 M⁻¹ s⁻¹
Fraction of Hemolysis (protease-incubated purified complement protein added back to depleted sera) [4]: 0.943
Fraction of Hemolysis (protease-incubated purified complement protein added back to depleted sera) [5]: -0.00104
kcat/Km (specificity constant) of cleavage of full length C2, in gel kinetics (SDS-PAGE densitometry time course) [5]: 72000 M⁻¹ s⁻¹
Fraction of Hemolysis (protease-incubated purified complement protein added back to depleted sera) [7]: 0.944
kcat/Km (specificity constant), fluorogenic peptide cleavage [8]: 3500 M⁻¹ s⁻¹
Fraction of Hemolysis (protease-incubated purified complement protein added back to depleted sera) [11]: 0.072
kcat/Km (specificity constant), fluorogenic peptide cleavage [12]: 3700 M⁻¹ s⁻¹

B3: modified MT-SP1 CB331 (I41D/Y146D/K224L) protease domain (protein)
chain: B1 chain with I26D, Y141D, K221L
C3 Western blot of samples of the alternative hemolysis assay (human plasma) [11]: cleave C3 as assessed by decreased C3 product as compared to the no protease treated plasma sample

B4: modified MT-SP1 CB387 (Y146D/Q175W/K224L) protease domain (protein)
chain: B1 chain with Y141D, Q169W, K221L
C3 Western blot of samples of the alternative hemolysis assay (human plasma) [11]: cleave C3 as assessed by decreased C3 product as compared to the no protease treated plasma sample

B5: modified MT-SP1 CB42 (Y146E) protease domain (protein)
chain: B1 chain with F92W, Y141E
kcat/Km (specificity constant), fluorogenic peptide cleavage [1]: 1.8e+06 M⁻¹ s⁻¹
Fraction of Hemolysis (protease-incubated purified complement protein added back to depleted sera) [4]: 1.02
Fraction of Hemolysis (protease-incubated purified complement protein added back to depleted sera) [5]: 0.0714
kcat/Km (specificity constant) of cleavage of full length C2, in gel kinetics (SDS-PAGE densitometry time course) [5]: 36000 M⁻¹ s⁻¹
Fraction of Hemolysis (protease-incubated purified complement protein added back to depleted sera) [7]: 1.04
kcat/Km (specificity constant), fluorogenic peptide cleavage [8]: 63000 M⁻¹ s⁻¹
Fraction of Hemolysis (protease-incubated purified complement protein added back to depleted sera) [11]: 0.122
kcat/Km (specificity constant), fluorogenic peptide cleavage [12]: 59000 M⁻¹ s⁻¹

B6: modified MT-SP1 CB349 (I41D/Y146D/K224F) protease domain (protein)
chain: B1 chain with I26D, Y141D, K221F
C3 Western blot of samples of the alternative hemolysis assay (human plasma) [11]: cleave C3 as assessed by decreased C3 product as compared to the no protease treated plasma sample
